Sequences and labels used below:
B1: humanized A10 antibody A10/16E8 (antibody, V domains shown)
VH: QVQLVQSGGQVKKPGASVKISCKASGYSFTGYTMHWVKQAPGRGLEWIGLINPYNGGTGYNQKFKGKATLTVDKSSSTTYIELLSLTSEDSAVYYCARTSGYLFAYWGQGTLVTVSS
VL: DIVLTQTPDSLAVSLGERATITCKASEDIYNRLAWYQQKAGQPPKLLISGATSLETGVPDRFSGSGSGTDFTLTISSLQAEDVATYYCQQYWSSPLTFGAGTKVNIK
notes: VH of A10/16E8 (CDRs and flanking FR residues of mA10 grafted onto the human framework 16E8); VL of A10/16E8 (CDRs and flanking FR residues of mA10 grafted onto the human framework 16E8); also called A10/16A8 (as printed once in the discussion); source: Expi293F, transiently transfected, purified (protein G)
B2: humanized A10 antibody A10/8A7 (antibody, V domains shown)
VH: QIHLVESGGGVVQTGKSMKISCKASGYSFTGYTMHWVKQTPGKNLEWIGLINPYNGGTGYNQKFKGKATLTVDKSSSTTYIELLSLTSEDSAVYYCARTSGYLFAYWGQGTLVTVSS
VL: ETVMTQSPATLSVSPGERATITCKASEDIYNRLAWYQQKPGQAPRLLISGATSLETGVPSRFSGSGSGTEFTLTISSLQSEDVATYYCQQYWSSPLTFGAGTKLEIK
B3: mouse anti-ADAMTS13 antibody clone A10 (antibody, V domains shown)
VH: EVQLQQSGPELVKPGTSMKISCKASGYSFTGYTMHWVKQSHGKNLEWIGLINPYNGGTGYNQKFKGKATLTVDKSSSTTYIELLSLTSEDSAVYYCARTSGYLFAYWGQGTLVTVSA
VL: DIQMTQSSSSFSVSLGDRVTITCKASEDIYNRLAWYQQKPGNAPRLLISGATSLETGVPSRFSGSGSGKDYIFSITSLQTEDVATYYCQQYWSSPLTFGAGTKLELK
notes: VH of mA10; mouse heavy chain constant region cloned from the mA10 hybridoma; VL of mA10; mouse light chain constant region cloned from the mA10 hybridoma; Whole mouse IgG; mouse IgG2b served as the negative control, which may hint at IgG2b (surmise); also called mA10; mouse A10; source: Expi293F, transiently transfected, purified (protein G)
B4: human-mouse chimeric A10 (antibody, V domains shown)
VH: B3 VH
VL: B3 VL

For the first assay, the target named is T1, Recombinant Human ADAMTS13 (Full Length) Protein (Homo sapiens, UniProt Q76LX8). Briefly: cell-based or functional assay.
T1 sequence (Q76LX8 75-1427): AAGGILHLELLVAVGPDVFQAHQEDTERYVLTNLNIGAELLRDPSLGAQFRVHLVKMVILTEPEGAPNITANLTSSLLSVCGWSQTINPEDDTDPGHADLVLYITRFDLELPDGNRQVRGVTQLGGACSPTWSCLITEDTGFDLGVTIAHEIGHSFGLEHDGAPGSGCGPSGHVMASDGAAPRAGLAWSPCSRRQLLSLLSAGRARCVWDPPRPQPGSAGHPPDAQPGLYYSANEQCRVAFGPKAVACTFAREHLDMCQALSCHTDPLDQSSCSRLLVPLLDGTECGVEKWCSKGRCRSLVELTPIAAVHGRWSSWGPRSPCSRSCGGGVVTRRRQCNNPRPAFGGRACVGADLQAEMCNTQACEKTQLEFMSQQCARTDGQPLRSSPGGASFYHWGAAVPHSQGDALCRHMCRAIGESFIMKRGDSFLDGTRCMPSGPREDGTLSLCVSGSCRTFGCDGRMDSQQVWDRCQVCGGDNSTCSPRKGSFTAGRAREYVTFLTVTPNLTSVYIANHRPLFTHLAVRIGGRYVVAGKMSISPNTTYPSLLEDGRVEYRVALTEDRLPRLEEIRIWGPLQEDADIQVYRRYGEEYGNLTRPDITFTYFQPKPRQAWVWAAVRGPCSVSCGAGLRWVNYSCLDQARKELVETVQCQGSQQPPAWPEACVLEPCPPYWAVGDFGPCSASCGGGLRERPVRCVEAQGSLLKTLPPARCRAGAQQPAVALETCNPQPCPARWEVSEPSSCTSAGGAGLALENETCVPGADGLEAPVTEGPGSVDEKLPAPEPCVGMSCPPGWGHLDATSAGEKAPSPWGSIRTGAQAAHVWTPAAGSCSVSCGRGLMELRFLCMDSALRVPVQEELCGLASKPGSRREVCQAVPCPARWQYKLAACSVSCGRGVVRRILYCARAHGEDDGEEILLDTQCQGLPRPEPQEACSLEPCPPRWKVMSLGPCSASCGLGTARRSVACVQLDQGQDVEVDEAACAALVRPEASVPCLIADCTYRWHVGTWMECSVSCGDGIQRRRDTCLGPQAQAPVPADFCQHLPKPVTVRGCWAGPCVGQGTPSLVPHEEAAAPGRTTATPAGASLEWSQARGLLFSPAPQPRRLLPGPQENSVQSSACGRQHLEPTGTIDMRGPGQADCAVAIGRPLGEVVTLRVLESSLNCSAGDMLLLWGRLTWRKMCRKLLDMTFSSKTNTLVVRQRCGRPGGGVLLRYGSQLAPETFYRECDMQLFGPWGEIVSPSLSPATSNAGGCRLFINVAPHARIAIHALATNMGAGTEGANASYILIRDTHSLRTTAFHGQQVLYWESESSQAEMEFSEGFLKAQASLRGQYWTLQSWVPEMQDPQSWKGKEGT
Settings: not given
As to B1, the “IC50 of inhibition of plasma ADAMTS13 activity on VWF cleavage (chromogenic ELISA, normal pooled plasma, antibody 25 to 0.20 ug/mL)” value came out at 0.9 mg/L.

As to B2, the “IC50 of inhibition of plasma ADAMTS13 activity on VWF cleavage (chromogenic ELISA, normal pooled plasma, antibody 25 to 0.20 ug/mL)” value worked out at 7.3 mg/L.

Regarding B3, the “IC50 of inhibition of plasma ADAMTS13 activity on VWF cleavage (chromogenic ELISA, normal pooled plasma, antibody 25 to 0.20 ug/mL)” value amounted to 2.28 mg/L.

As for B4, the “IC50 of inhibition of plasma ADAMTS13 activity on VWF cleavage (chromogenic ELISA, normal pooled plasma, antibody 25 to 0.20 ug/mL)” value was found to be 2.3 mg/L.

A further assay addresses T1, Recombinant Human ADAMTS13 (Full …). Briefly: SPR; Biacore T200; antibodies captured at about 1,000 RU on anti-human or anti-mouse IgG (Fc) on a CM5 chip; ADAMTS13 injected at 80 nM to 0.625 nM in PBS with 0.05% Tween 20; 25 C; 30 uL/min; contact 240 s, dissociation 900 s; 1:1 binding model. The settings on record: both partners purified. In general terms: SPR reads the build-up and loss of mass on a sensor chip optically.
B1: the Kd turned out to be 5.07 nM, the dissociation rate constant (koff) stood at 6.3e-05 s⁻¹ and the kon stood at 12400 M⁻¹ s⁻¹.

Turning to B2, the Kd was determined as 20.8 nM, the koff was 0.000193 s⁻¹ and the kon came to 9270 M⁻¹ s⁻¹.

For the molecule B3, the Kd stood at 5.99 nM, the koff is 0.000362 s⁻¹ and the kon was 60400 M⁻¹ s⁻¹.

Regarding B4, the Kd came to 2.8 nM, the koff stood at 2.03e-05 s⁻¹ and the kon was 7270 M⁻¹ s⁻¹.

By Kd is commonly meant the constant that tells how readily two partners part at equilibrium. For orientation: koff means the first-order rate constant of dissociation. One may read the kon as the second-order rate constant of association.

For the origin of these results see PMC8595387 (Scientific Reports, 2021).
